Patent US20120270768

## prostate specific antigen (PSA)
Ac-GSSKFQ-AMC
  Kcat/Km: 86 s^-1M^-1
  Km: 666 µM
  kcat: 0.057 s⁻¹
Ac-GSSKYQ-AMC
  Kcat against Mu-HSSKLQ-AMC: ˜10-fold improvement in the Kcat kinetic parameter
  Kcat/Km: 227 s^-1M^-1
  Kcat/Km ratio against Mu-HSSKLQ-AMC: Kcat/Km ratios that were 10-fold higher than the Mu-HSSKLQ-AMC test peptide
  Km: 500 µM
  kcat: 0.113 s⁻¹
Mu-HSSKLQ//L12ADT
  PSA hydrolysis (release of L12ADT, LC/MS): the new prodrug was hydrolyzed dramatically better than the test peptide
Ac-GsAKYQ-AMC
  Kcat against Mu-HSSKLQ-AMC: ˜10-fold improvement in the Kcat kinetic parameter
  Kcat/Km: 218 s^-1M^-1
  Kcat/Km ratio against Mu-HSSKLQ-AMC: Kcat/Km ratios that were 10-fold higher than the Mu-HSSKLQ-AMC test peptide
  Km: 653 µM
  kcat: 0.143 s⁻¹
Mu-SSKYQ//L12ADT
  PSA hydrolysis (release of L12ADT, LC/MS): the new prodrug was hydrolyzed dramatically better than the test peptide
Mu-HSSKLQ-AMC
  Kcat/Km: 23.6 s^-1M^-1
  Km: 470 µM
  kcat: 0.011 s⁻¹
Ac-GKSQYQ-AMC
  Kcat against Mu-HSSKLQ-AMC: ˜10-fold improvement in the Kcat kinetic parameter
  Kcat/Km: 278 s^-1M^-1
  Kcat/Km ratio against Mu-HSSKLQ-AMC: Kcat/Km ratios that were 10-fold higher than the Mu-HSSKLQ-AMC test peptide
  Km: 343 µM
  kcat: 0.09 s⁻¹
